Measurements: article PMC9191892
One block for each binder: values may come before it.

Assays:
[1] = target: ribosomes (80S monosomes and polysomes) (S. cerevisiae (endogenous in BY4741)); assay: co-sedimentation; formaldehyde-crosslinked cell extracts (unstressed or H2O2-treated) on 15-50% sucrose gradients, SW41 Ti 2.5 hr at 278,000 x g, 4°C; fractions western blotted
[2] = target: ribosomes (80S monosomes and polysomes) (S. cerevisiae (endogenous in BY4741)); assay: co-sedimentation; polysomal proteomics: formaldehyde-crosslinked extracts (unstressed, H2O2, 3-AT) on 15-50% sucrose gradients, fractions F1-F5 against totals by label-free MS; percent ribosome association estimated from the fraction sum to total ratio

percent in ribosomal fractions [1]: 10%
percent ribosome associated (H2O2-treated extract) [1]: 13%
B1: Aat2-TAP (cytosolic aspartate aminotransferase with a C-terminal TAP tag) (enzyme)
chain: MSATLFNNIELLPPDALFGIKQRYGQDQRATKVDLGIGAYRDDNGKPWVLPSVKAAEKLIHNDSSYNHEYLGITGLPSLTSNAAKIIFGTQSDAFQEDRVISVQSLSGTGALHISAKFFSKFFPDKLVYLSKPTWANHMAIFENQGLKTATYPYWANETKSLDLNGFLNAIQKAPEGSIFVLHSCAHNPTGLDPTSEQWVQIVDAIASKNHIALFDTAYQGFATGDLDKDAYAVRLGVEKLSTVSPVFVCQSFAKNAGMYGERVGCFHLALTKQAQNKTIKPAVTSQLAKIIRSEVSNPPAYGAKIVAKLLETPELTEQWHKDMVTMSSRITKMRHALRDHLVKLGTPGNWDHIVNQCGMFSFTGLTPQMVKRLEETHAVYLVASGRASIAGLNQGNVEYVAKAIDEVVRFYTIEAKL

percent ribosome associated (H2O2-treated extract) [2]: 9%
B2: Aat2 (cytosolic aspartate aminotransferase), untagged (enzyme)
chain: B1 chain
